Measured values from US20230250154A1 (CYTONICS, published 2023).

T1: ADAMTS4 (human, UniProt O75173 213-685, limits assumed)
T1 sequence (looked up): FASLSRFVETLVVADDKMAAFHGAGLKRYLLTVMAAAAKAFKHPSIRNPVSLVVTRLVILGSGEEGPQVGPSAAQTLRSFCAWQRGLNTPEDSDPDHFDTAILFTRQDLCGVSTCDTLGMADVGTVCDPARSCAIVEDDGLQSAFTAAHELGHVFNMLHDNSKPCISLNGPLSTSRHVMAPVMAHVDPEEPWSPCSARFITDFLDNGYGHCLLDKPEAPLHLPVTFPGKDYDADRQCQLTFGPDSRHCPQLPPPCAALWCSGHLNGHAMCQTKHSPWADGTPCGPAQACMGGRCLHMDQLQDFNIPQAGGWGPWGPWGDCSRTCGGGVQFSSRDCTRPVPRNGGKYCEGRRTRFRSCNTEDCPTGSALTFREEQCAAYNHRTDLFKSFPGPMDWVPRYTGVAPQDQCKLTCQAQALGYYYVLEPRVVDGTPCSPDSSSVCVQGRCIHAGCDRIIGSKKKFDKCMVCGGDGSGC

T2: ADAMTS5 (human, UniProt Q9UNA0 262-622, limits assumed)
T2 sequence (looked up): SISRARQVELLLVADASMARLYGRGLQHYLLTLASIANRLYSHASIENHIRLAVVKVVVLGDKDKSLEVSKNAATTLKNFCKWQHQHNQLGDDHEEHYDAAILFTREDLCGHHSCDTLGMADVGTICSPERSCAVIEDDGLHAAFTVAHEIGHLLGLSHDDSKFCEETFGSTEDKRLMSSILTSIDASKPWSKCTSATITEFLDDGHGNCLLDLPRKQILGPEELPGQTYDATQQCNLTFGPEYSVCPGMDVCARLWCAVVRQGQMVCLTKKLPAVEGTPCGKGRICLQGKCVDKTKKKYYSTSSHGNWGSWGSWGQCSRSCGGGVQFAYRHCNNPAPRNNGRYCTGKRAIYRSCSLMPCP

T3: MMP1 (human, UniProt P03956 100-469, limits assumed)
T3 sequence (looked up): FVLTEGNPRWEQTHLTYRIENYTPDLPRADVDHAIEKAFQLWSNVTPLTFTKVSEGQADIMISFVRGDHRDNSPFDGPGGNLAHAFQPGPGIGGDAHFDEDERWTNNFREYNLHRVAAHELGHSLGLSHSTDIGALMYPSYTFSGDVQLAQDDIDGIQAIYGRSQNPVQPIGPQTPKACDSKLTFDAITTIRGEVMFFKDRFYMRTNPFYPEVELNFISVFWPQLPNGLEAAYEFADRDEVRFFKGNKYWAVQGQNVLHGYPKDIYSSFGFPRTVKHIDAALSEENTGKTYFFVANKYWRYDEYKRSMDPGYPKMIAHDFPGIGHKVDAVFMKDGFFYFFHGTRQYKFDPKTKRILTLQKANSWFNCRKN

T4: MMP2 (human, UniProt P08253 110-660, limits assumed)
T4 sequence (looked up): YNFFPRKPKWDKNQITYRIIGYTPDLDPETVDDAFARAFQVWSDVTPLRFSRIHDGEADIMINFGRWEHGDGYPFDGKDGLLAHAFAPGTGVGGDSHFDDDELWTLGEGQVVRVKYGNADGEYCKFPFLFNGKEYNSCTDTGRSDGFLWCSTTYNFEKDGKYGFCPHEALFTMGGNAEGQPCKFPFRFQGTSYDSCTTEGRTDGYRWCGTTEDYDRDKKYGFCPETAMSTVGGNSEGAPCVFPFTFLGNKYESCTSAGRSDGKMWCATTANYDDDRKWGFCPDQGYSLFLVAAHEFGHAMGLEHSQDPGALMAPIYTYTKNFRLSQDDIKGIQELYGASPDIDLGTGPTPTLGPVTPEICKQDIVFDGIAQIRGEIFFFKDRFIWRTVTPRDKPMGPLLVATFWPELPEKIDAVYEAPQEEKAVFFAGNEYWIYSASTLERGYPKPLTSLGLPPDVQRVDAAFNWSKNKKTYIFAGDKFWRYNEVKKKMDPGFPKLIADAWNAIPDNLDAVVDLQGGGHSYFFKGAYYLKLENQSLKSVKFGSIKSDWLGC

T5: Cathepsin G (UniProt P08311 21-244)
T5 sequence (looked up): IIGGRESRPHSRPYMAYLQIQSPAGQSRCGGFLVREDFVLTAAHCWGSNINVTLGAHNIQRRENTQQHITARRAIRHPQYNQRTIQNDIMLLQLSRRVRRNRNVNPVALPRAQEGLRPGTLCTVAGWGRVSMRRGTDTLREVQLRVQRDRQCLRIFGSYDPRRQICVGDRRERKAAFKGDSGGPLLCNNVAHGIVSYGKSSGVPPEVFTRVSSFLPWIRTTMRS


Tests used:
Assay in all cases: cell-based or functional assay
ADAMTS4 = target: T1, ADAMTS4
MMP13 = MMP13 (human, UniProt P45452 104-471, limits assumed)
ADAMTS5 = target: T2, ADAMTS5
MMP12 = MMP12 (human, UniProt P39900 106-470, limits assumed)
MMP9 = MMP9 (human, UniProt P14780 107-707, limits assumed)
MMP3 = MMP3 (human, UniProt P08254 100-477, limits assumed)
MMP8 = MMP8 (human, UniProt P22894 101-467, limits assumed)
MMP1 = target: T3, MMP1
MMP2 = target: T4, MMP2
bovine trypsin = bovine trypsin (bovine, UniProt P00760 24-246)
chymotrypsin = target: chymotrypsin
Elastase = target: Elastase
Cathepsin G = target: T5, Cathepsin G

Sequence of MMP12 (P39900 106-470 limits assumed): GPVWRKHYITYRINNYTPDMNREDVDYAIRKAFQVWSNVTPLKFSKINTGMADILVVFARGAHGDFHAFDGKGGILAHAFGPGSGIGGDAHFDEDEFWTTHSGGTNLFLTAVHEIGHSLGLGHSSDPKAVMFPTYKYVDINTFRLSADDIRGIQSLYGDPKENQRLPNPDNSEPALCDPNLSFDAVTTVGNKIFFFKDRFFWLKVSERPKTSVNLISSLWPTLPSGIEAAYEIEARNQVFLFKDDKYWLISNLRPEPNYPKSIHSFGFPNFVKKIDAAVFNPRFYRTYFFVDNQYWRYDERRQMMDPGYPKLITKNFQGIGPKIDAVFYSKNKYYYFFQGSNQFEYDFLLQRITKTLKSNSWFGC
Sequence of bovine trypsin (P00760 24-246): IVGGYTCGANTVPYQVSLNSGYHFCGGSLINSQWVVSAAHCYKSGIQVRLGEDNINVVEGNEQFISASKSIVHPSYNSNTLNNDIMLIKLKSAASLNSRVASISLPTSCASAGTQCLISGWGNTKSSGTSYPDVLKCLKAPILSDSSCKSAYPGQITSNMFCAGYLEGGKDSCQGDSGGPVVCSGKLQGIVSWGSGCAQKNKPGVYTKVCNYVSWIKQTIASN
Sequence of MMP3 (P08254 100-477 limits assumed): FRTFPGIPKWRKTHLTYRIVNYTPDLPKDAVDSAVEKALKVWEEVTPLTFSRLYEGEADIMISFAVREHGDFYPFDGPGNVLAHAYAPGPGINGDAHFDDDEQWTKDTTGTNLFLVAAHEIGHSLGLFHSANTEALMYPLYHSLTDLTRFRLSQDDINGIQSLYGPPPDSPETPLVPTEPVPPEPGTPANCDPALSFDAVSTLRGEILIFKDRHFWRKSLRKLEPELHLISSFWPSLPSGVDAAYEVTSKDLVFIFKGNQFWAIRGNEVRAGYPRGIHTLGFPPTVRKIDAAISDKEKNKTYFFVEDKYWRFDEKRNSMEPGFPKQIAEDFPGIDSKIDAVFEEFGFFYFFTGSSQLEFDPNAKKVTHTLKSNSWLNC
Sequence of MMP9 (P14780 107-707 limits assumed): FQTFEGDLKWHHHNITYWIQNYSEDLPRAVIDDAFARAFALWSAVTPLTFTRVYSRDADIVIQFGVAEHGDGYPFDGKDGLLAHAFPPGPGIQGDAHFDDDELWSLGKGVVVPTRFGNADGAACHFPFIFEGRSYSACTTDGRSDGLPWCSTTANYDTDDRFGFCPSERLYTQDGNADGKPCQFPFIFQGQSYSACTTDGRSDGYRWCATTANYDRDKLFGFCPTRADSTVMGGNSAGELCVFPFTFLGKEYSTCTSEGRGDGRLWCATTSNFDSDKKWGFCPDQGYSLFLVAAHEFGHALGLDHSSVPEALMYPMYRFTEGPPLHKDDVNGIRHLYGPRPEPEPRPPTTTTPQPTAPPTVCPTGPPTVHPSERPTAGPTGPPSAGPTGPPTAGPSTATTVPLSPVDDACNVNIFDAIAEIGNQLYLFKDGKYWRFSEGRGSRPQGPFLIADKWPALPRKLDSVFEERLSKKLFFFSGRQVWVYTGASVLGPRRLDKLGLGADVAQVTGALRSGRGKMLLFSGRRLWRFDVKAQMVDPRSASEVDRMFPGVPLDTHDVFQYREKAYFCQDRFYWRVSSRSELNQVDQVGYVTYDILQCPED
Sequence of MMP8 (P22894 101-467 limits assumed): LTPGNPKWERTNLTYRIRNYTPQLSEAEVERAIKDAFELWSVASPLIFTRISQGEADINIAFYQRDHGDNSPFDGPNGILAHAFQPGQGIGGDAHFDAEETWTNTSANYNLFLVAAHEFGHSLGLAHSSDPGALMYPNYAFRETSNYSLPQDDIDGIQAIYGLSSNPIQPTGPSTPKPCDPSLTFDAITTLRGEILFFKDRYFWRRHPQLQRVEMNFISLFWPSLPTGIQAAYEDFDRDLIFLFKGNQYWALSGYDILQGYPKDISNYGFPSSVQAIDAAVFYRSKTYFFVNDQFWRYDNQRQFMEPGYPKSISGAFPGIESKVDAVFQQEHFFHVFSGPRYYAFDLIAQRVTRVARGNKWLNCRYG

Protease Inhibition (% of WT) (ADAMTS4) | Protease Inhibition (% of WT) (MMP13) | Protease Inhibition (% of WT) (ADAMTS5) | Protease Inhibition (% of WT) (MMP12) | Protease Inhibition (% of WT) (MMP9) | Protease Inhibition (% of WT) (MMP3) | Protease Inhibition (% of WT) (MMP8) | Protease Inhibition (% of WT) (MMP1) | Protease Inhibition (% of WT) (MMP2) | Protease Inhibition (% of WT) (bovine trypsin) | Protease Inhibition (% of WT) (chymotrypsin) | Protease Inhibition (% of WT) (Elastase) | Protease Inhibition (% of WT) (Cathepsin G) | Binder
70 % of WT | 700 % of WT | 350 % of WT | 100 % of WT | 100 % of WT | 110 % of WT | 110 % of WT | 50 % of WT | 110 % of WT | 100 % of WT | 80 % of WT | 550 % of WT | – | Variant A2M, bait region SEQ ID NO 90 (other) SVSGKPQYMVLVPSLLHTETTEKGCVLLSYLNETVTVSASLESVRGNRSLFTDLEAENDVLHCVAFAVPKSSSNEEVMFLTVQVKGPTQEFKKRTTVMVKNEDSLVFVQTDKSIYKPGQTVKFRVVSMDENFHPLNELIPLVYIQDPKGNRIAQWQSFQLEGGLKQFSFPLSSEPFQGSYKVVVQKKSGGRTEHPFTVEEFVLPKFEVQVTVPKIITILEEEMNVSVCGLYTYGKPVPGHVTVSICRKYSDASDCHGEDSQAFCEKFSGQLNSHGCFYQQVKTKVFQLKRKEYEMKLHTEAQIQEEGTVVELTGRQSSEITRTITKLSFVKVDSHFRQGIPFFGQVRLVDGKGVPIPNKVIFIRGNEANYYSNATTDEHGLVQFSINTTNVMGTSLTVRVNYKDRSPCYGYQWVSEEHEEAHHTAYLVFSPSKSFVHLEPMSHELPCGHTQTVQAHYILNGGTLLGLKKLSFYYLIMAKGGIVRTGTHGLLVKQEDMKGHFSISIPVKSDIAPVARLLIYAVLPTGDVIGDSAKYDVENCLANKVDLSFSPSQSLPASHAHLRVTAAPQSVCALRAVDQSVLLMKPDAELSASSVYNLLPEKDLTGFPGPLNDQDDEDCINRHNVYINGITYTPVSSTNEKDMYSFLEDMGLKAFTNSKIRKPKMCPQLEQYEMHGPEGLRVGSELEGRGSFYESDVMGRGHARLVHVEEPHTKLLRKYFPETWIWDLVVVNSAGVAEVGVTVPDTITEWKAGAFCLSEDAGLGISSTASLRAFQPFFVELTMPYSVIRGEAFTLKATVLNYLPKCIRVSVQLEASPAFLAVPVEKEQAPHCICANGRQTVSWAVTPKSLGNVNFTVSAEALESQELCGTEVPSVPEHGRKDTVIKPLLVEPEGLEKETTFNSLLCPSGGEVSEELSLKLPPNVVEESARASVSVLGDILGSAMQNTQNLLQMPYGCGEQNMVLFAPNIYVLDYLNETQQLTPEIKSKAIGYLNTGYQRQLNYKHYDGSYSTFGERYGRNQGNTWLTAFVLKTFAQARAYIFIDEAHITQALIWLSQRQKDNGCFRSSGSLLNNAIKGGVEDEVTLSAYITIALLEIPLTVTHPVVRNALFCLESAWKTAQEGDHGSHVYTKALLAYAFALAGNQDKRKEVLKSLNEEAVKKDNSVHWERPQKPKAPVGHFYEPQAPSAEVEMTSYVLLAYLTAQPAPTSEDLTSATNIVKWITKQQNAQGGFSSTQDTVVALHALSKYGAATFTRTGKAAQVTIQSSGTFSSKFQVDNNNRLLLQQVSLPELPGEYSMKVTGEGCVYLQTSLKYNILPEKEEFPFALGVQTLPQTCDEPKAHTSFQISLSVSYTGSRSASNMAIVDVKMVSGFIPLKPTVKMLERSNHVSRTEVSSNHVLIYLDKVSNQTLSLFFTVLQDVPVRDLKPAIVKVYDYYETDEFAIAEYNAPCSKDLGNADYKDDDDKGASHHHHHH
115 % of WT | 117 % of WT | 480 % of WT | 132 % of WT | 500 % of WT | 130 % of WT | 163 % of WT | 379 % of WT | 61 % of WT | 86 % of WT | 50 % of WT | 105 % of WT | 311 % of WT | Variant A2M, bait region SEQ ID NO 126 (other) SVSGKPQYMVLVPSLLHTETTEKGCVLLSYLNETVTVSASLESVRGNRSLFTDLEAENDVLHCVAFAVPKSSSNEEVMFLTVQVKGPTQEFKKRTTVMVKNEDSLVFVQTDKSIYKPGQTVKFRVVSMDENFHPLNELIPLVYIQDPKGNRIAQWQSFQLEGGLKQFSFPLSSEPFQGSYKVVVQKKSGGRTEHPFTVEEFVLPKFEVQVTVPKIITILEEEMNVSVCGLYTYGKPVPGHVTVSICRKYSDASDCHGEDSQAFCEKFSGQLNSHGCFYQQVKTKVFQLKRKEYEMKLHTEAQIQEEGTVVELTGRQSSEITRTITKLSFVKVDSHFRQGIPFFGQVRLVDGKGVPIPNKVIFIRGNEANYYSNATTDEHGLVQFSINTTNVMGTSLTVRVNYKDRSPCYGYQWVSEEHEEAHHTAYLVFSPSKSFVHLEPMSHELPCGHTQTVQAHYILNGGTLLGLKKLSFYYLIMAKGGIVRTGTHGLLVKQEDMKGHFSISIPVKSDIAPVARLLIYAVLPTGDVIGDSAKYDVENCLANKVDLSFSPSQSLPASHAHLRVTAAPQSVCALRAVDQSVLLMKPDAELSASSVYNLLPEKDLTGFPGPLNDQDDEDCINRHNVYINGITYTPVSSTNEKDMYSFLEDMGLKAFTNSKIRKPKMCPQLEQYEMHGPEGEGEGEGIPENFFGVSEDLVVQISELEGRGSVEEPHTKLRKYFPETWIWDLVVVNSAGVAEVGVTVPDTITEWKAGAFCLSEDAGLGISSTASLRAFQPFFVELTMPYSVIRGEAFTLKATVLNYLPKCIRVSVQLEASPAFLAVPVEKEQAPHCICANGRQTVSWAVTPKSLGNVNFTVSAEALESQELCGTEVPSVPEHGRKDTVIKPLLVEPEGLEKETTFNSLLCPSGGEVSEELSLKLPPNVVEESARASVSVLGDILGSAMQNTQNLLQMPYGCGEQNMVLFAPNIYVLDYLNETQQLTPEIKSKAIGYLNTGYQRQLNYKHYDGSYSTFGERYGRNQGNTWLTAFVLKTFAQARAYIFIDEAHITQALIWLSQRQKDNGCFRSSGSLLNNAIKGGVEDEVTLSAYITIALLEIPLTVTHPVVRNALFCLESAWKTAQEGDHGSHVYTKALLAYAFALAGNQDKRKEVLKSLNEEAVKKDNSVHWERPQKPKAPVGHFYEPQAPSAEVEMTSYVLLAYLTAQPAPTSEDLTSATNIVKWITKQQNAQGGFSSTQDTVVALHALSKYGAATFTRTGKAAQVTIQSSGTFSSKFQVDNNNRLLLQQVSLPELPGEYSMKVTGEGCVYLQTSLKYNILPEKEEFPFALGVQTLPQTCDEPKAHTSFQISLSVSYTGSRSASNMAIVDVKMVSGFIPLKPTVKMLERSNHVSRTEVSSNHVLIYLDKVSNQTLSLFFTVLQDVPVRDLKPAIVKVYDYYETDEFAIAEYNAPCSKDLGNADYKDDDDKGASHHHHHH
